Experimental data taken from US20220073635A1 (ALLIGATOR BIOSCIENCE, published 2022).
Where a chain is given by its changes, count along the chain named.

B1: 1132-3174.R (bispecific antibody)
chain 1: not shown
chain 2: ELVMTQSPSSLTVTAGEKVTMSCKSSQSLLNSGNQKNYLTWYQRKPGQPPKLLIYWASTRESGVPDRFTGSGSGTDFTLTISSVQAEDLAVYYCQNDYSYPLTFGAGTKLEIK
chain 3: DIQMTQSPSSLSASVGDRVTITCRASQSISSYLNWYQEKPGKAPKLLIYAASSLQSGVPSRFSGSGSGTDFTLTISSLQPEDFATYYCQQYGRNPPTFGQGTKLEIKRTVAAPSVFIFPPSDEQLKSGTASVVCYLNNFYPREAKVQWKVDNALQSGNSQESVTEQDSKDSTYSLWSTLTLSKADYEKHKVYACEVTHQGLSSPVTKSFNRGEC
chain 4: EVQLLEQSGAELVRPGTSVKISCKASGYAFTNYWLGWVKERPGHGLEWIGDIFPGSGNIHYNEKFKGKATLTADKSSSTAYMQLSSLTFEDSAVYFCARLRNWDEPMDYWGQGTTVTVSSASTKGPSVFPLAPSSKSTSGGTAALGCLVKDYFPEPVTVSWNSGALTSGVHTFPAVLQSSGLYSLSSVVEVPSSSLGTQTYICNVNHKPSNTKVDKKVEPKSC
B2: 1132-005025.M (bispecific antibody)
VH: EVQLLESGGGLVQPGGSLRLSCAASGFTFSSYAMSWVRQAPGKGLEWVSGIGSYGGGTYYADSVKGRFTISRDNSKNTLYLQMNSLRAEDTAVYYCARYVNFGMDYWGQGTLVTVSS
VL: DIQMTQSPSSLSASVGDRVTITCRASQSISSYLNWYQQKPGKAPKLLIYAASSLQSGVPSRFSGSGSGTDFTLTISSLQPEDFATYYCQQYGRNPPTFGQGTKLEIK
scFv: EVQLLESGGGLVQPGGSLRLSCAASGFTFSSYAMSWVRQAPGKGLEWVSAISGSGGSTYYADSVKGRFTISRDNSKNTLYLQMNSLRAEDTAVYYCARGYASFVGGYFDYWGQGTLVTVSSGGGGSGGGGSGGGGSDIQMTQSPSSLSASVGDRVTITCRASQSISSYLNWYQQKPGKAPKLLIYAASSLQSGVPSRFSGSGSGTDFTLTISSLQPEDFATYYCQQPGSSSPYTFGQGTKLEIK
notes: also called CD40-EpCAM bispecific antibody in the Morrison format
B3: 1132-3188.M (bispecific antibody, V domains shown)
VH 1: B2 VH
VL 1: B2 VL
VH 2: EVQLVQSGPGLVQPGGSVRISCAASGYTFTNYGMNWVKQAPGKGLEWMGWINTYTGESTYADSFKGRFTFSLDTSASAAYLQINSLRAEDTAVYYCARFAIKGDYWGQGTLLTVSS
VL 2: DIQMTQSPSSLSASVGDRVTITCRSTKSLLHSNGITYLYWYQQKPGKAPKLLIYQMSNLASGVPSRFSSSGSGTDFTLTISSLQPEDFATYYCAQNLEIPRTFGQGTKVELK
notes: also called CD40-EpCAM bispecific antibody in the Morrison format; 3188 = 4D5MOCB = BM1
B4: 1132.m2 (antibody, V domains shown)
VH: B2 VH
VL: B2 VL
notes: also called LALA-mutated agonistic monoclonal CD40 antibody
B5: 1132-3174.M (bispecific antibody, V domains shown)
VH 1: B2 VH
VL 1: B2 VL
VH 2: EVQLLEQSGAELVRPGTSVKISCKASGYAFTNYWLGWVKQRPGHGLEWIGDIFPGSGNIHYNEKFKGKATLTADKSSSTAYMQLSSLTFEDSAVYFCARLRNWDEPMDYWGQGTTVTVSS
VL 2: B1 chain 2 with R44Q
notes: as for B2
B6: 1132-005038.M (bispecific antibody)
VH: B2 VH
VL: B2 VL
scFv: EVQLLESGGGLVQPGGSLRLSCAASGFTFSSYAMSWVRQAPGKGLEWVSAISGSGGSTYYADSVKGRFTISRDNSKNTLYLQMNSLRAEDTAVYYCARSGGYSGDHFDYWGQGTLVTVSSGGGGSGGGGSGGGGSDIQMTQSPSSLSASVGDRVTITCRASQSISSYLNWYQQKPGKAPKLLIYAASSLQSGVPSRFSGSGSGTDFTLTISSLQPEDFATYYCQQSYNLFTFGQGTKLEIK
notes: as for B2

Assays:
[1] = target: T1, EpCAM-Fc (Sino hEpCAM_Fc #10694-H02H) (human, UniProt P16422 24-265); assay: Octet BLI, Assay 3: EpCAM-Fc coupled to AR2G sensor, bsAb in solution, 1:1 fit
T1 construct: Bought protein, called dimeric; also called dimeric antigen EpCAM-Fc; not shown: Fc part
T1 sequence (looked up): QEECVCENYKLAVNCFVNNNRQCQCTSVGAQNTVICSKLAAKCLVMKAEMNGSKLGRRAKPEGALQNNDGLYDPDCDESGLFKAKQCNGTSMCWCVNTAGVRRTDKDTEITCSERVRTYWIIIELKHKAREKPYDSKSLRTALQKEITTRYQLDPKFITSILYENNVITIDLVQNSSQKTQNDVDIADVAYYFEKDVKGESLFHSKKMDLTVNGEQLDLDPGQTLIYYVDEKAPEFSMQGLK
Protocol: (§1) Kinetic measurements were performed using the Octet RED96 platform (ForteBlo).
Antigen was coupled to Amine reactive Second generation sensors (Dip and Read Amine reactive Second-Generation (AR2G) Biosensors (Part no #18-5092 (tray)) at antigen concentrations of 0.4, 1.5, 0.25 or 0.5 μg/mL. BsAb (serially diluted ½ in 1× Kinetic buffer (ForteBio) with start concentrations of 20, 15, 10 or 25 nM) were analysed for binding to antigen-coupled sensors. The association was followed for 300 seconds and the dissociation in 1× Kinetic buffer for 300 seconds. Sensor tips were regenerated using 10 mM glycine, pH 2.2. Data generated were referenced by subtracting a parallel buffer blank, the baseline was aligned with the y-axis, inter-step correlation by alignment against dissociation was performed and the data were smoothed by a Savitzky-Golay filter in the data analysis software (v.9.0.0.14). The processed data were fitted using a 1:1 Langmuir binding model with X2 as a measurement of fitting accuracy.

[2] = target: T1, EpCAM-Fc (Sino hEpCAM_Fc #10694-H02H); assay: Octet BLI, Assay 1: bsAb on FAB2G sensor, dimeric EpCAM-Fc in solution, 1:1 fit
Protocol: as §1
(§2) BsAb at 1.0 or 1.5 ug/ml where coupled to anti-human Fab-CH1 2nd generation (FAB2G) biosensors (Part no #18-5125 (tray)). Antigens were serially diluted % in 1× Kinetic buffer (ForteBio) to 100 nM, 50 nM, 25 nM, 12.5 nM, 6.25 nM, 3.125 nM, 1.56 nM or 0 nM. The association was followed for 300 seconds and the dissociation in 1× Kinetic buffer for 300 seconds. Sensor tips were regenerated using 10 mM glycine, pH 1.5. Data generated were referenced by subtracting a parallel buffer blank, the baseline was aligned with the y-axis, inter-step correlation by alignment against dissociation was performed and the data were smoothed by a Savitzky-Golay filter in the data analysis software (v.9.0.0.14). The processed data were fitted using a 1:1 Langmuir binding model with X2 as a measurement of fitting accuracy.

[3] = target: T2, hEpCAM (R&D Systems #9277-EP) (human, UniProt P16422 24-265); assay: Octet BLI, Assay 2: bsAb on FAB2G sensor, monomeric EpCAM-his in solution, 1:1 fit
T2 construct: Bought protein, monomeric; also called human EpCAM; monomeric antigen EpCAM-his; not shown: His tag
T2 sequence (looked up): T1 sequence (looked up)
Protocol: as §1, §2

[4] = target: T3, human EpCAM expressed on cells (human, UniProt P16422 24-314); assay: flow cytometry, biotinylated antibody titrated on EpCAM-transfected and control CHO cells, streptavidin detection
T3 construct: whole, on cells; also called EpCAM-transfected CHO cells; CHO-EpCAM
T3 sequence (looked up): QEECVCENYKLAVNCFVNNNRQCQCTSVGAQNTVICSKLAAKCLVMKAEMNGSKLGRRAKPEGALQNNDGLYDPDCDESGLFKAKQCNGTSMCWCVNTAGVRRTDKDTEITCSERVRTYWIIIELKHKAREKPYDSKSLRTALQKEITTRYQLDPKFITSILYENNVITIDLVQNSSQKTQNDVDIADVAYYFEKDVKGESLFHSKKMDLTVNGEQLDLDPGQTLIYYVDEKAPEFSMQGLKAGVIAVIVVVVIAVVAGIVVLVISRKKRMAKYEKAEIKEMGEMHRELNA
Text: The human EpCAM gene was cloned into pcDNA3.1, and the vector was subsequently stably transfected into CHO cells. Control CHO cells were stably transfected with and empty pcDNA3.1 vector. […] Binding of biotinylated antibodies was detected with fluorochrome-conjugated streptavidin and analysed using flow cytometry.

[5] = target: T4, CD40 on human peripheral blood mononuclear cells (human, UniProt P25942 21-277); assay: flow cytometry, biotinylated antibody titrated on human PBMC (B cells, monocytes, T cells, NK cells gated), streptavidin detection
T4 construct: whole, on cells; also called CD40+ cell populations among PBMC (B cells, monocytes)
T4 sequence (P25942 21-277): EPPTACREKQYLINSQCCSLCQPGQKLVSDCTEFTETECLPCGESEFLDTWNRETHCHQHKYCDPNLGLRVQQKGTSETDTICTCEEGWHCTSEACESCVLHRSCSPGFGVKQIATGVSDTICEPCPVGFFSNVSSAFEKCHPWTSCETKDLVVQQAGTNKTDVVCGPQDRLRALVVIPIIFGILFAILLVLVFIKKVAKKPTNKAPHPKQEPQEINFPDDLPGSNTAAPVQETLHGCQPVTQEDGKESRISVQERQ
Text: Binding of biotinylated antibodies was detected with fluorochrome-conjugated streptavidin and analysed using flow cytometry.

[6] = target: T5, biotinylated hCD40 (504-030 from Ancell) (human, UniProt P25942 21-193, biotinylated); assay: dual ELISA, bsAb captured on plate-coated hEpCAM, detected with biotinylated hCD40 and streptavidin-HRP
T5 construct: Detection reagent of the dual ELISA
T5 sequence (P25942 21-193 limits assumed): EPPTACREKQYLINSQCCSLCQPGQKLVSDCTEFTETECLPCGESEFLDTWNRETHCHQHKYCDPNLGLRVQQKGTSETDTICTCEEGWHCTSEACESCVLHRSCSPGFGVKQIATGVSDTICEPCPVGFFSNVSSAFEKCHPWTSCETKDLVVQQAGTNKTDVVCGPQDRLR
Protocol: Plates were coated with 0.5 μg/mL hEpCAM (R&D Systems #9277-EP) in PBS over night at 4° C. After washing in PBS/0.05% Tween 20 (PBST), the plates were blocked with PBS/0.2% BSA for at least 30 minutes at room temperature before being washed again. Samples serially diluted from 50 nM in PBS/0.02% BSA were then added and allowed to bind for at least 1 hour at room temperature. […] Dual antigen-complexed bsAb were detected with HRP-labelled streptavidin. SuperSignal Pico Luminescent was used as substrate and luminescence signals were measured using Fluostar Optima.

Binder	Kd [1]	koff [1]	kon [1]	Kd [2]	koff [2]	kon [2]	Kd [3]	koff [3]	kon [3]	binding result [4]	binding result [5]	binding result [6]
B1	8 nM	0.001 s⁻¹	100000 M⁻¹ s⁻¹	–	–	–	–	–	–	–	–	–
B2	–	–	–	4 nM	0.001 s⁻¹	300000 M⁻¹ s⁻¹	300 nM	0.01 s⁻¹	30000 M⁻¹ s⁻¹	–	–	–
B3	–	–	–	< 0.001 nM	< 1e-07 s⁻¹	300000 M⁻¹ s⁻¹	30 nM	0.004 s⁻¹	100000 M⁻¹ s⁻¹	–	–	–
B4	–	–	–	–	–	–	–	–	–	no binding	binds	–
B5	–	–	–	0.5 nM	8e-05 s⁻¹	200000 M⁻¹ s⁻¹	500 nM	0.01 s⁻¹	20000 M⁻¹ s⁻¹	–	–	binds
B6	–	–	–	6 nM	0.002 s⁻¹	300000 M⁻¹ s⁻¹	1000 nM	0.01 s⁻¹	8000 M⁻¹ s⁻¹	–	–	–
